The values that follow come from article PMC7736784.

In general, Kd refers to a measure of binding affinity in units of concentration. Low readings indicate a tighter complex, high ones a looser complex.

Like-named read-outs stand apart in the source and are kept apart here.

For assay [1], the target named is Sso7d-NanoLuc large fragment fusion.
For assay [2] the target is unchanged. The source holds these as a separate data set.

As to “NS2-Stoffel fusion (NanoLuc small fragment NS2)”, in assay [1], the equilibrium dissociation constant (Kd) stood at 190 µM.

Take NS3: in assay [2], the dissociation constant Kd was found to be 0.18 µM.
